According to publication PMC3627495:

Tests used:
[1] = molecular target: His-YFP-EB3 and His-CFP-EB3, full-length wild type (human) (UniProt Q9UPY8); experiment: FRET or BRET
[2] = molecular target: His-YFP-EB3 S162E and His-CFP-EB3 S162E, full-length phospho-mimetic mutant (human) (UniProt Q9UPY8); experiment: FRET or BRET

Row | t1/2 of chain exchange [1] | t1/2 of chain exchange [2] | Substance
1 | 1.01 h | 1.39 h | His-YFP-EB3 S162E and His-CFP-EB3 S162E, full-length phospho-mimetic mutant (from UniProt Q9UPY8 1-281) (natural protein)
2 | 2.66 h | – | His-YFP-EB3 and His-CFP-EB3, full-length wild type (from UniProt Q9UPY8 1-281) (natural protein)
